Assay results as given in patent publication US10731187B2, “Recombinant strain producing O-aminobenzoate and fermentative production of aniline from renewable resources via 2-aminobenzoic acid” (Covestro Deutschland AG, priority 2014, dated 2020).

Legend:
Conditions in all cases: other: raw extract (cell lysate), 25 °C, 20 mM L-glutamine, 10 mM MgCl2, chorismate as substrate
[1] = substrate: C=C(O[C@@H]1C=C(C(=O)O)C=C[C@H]1O)C(=O)O; experiment: cells, lysate or membranes
[2] = substrate: C=C(O[C@@H]1C=C(C(=O)O)C=C[C@H]1O)C(=O)O; experiment: Anthranilate synthase activity in cell lysate of C. glutamicum ΔtrpD/pEKEx2-trpEG^S38R (KM and vmax); assay type: biochemical, Corynebacterium glutamicum ATCC 13032
From the text: (§1) In more specific embodiments of the recombinant microbial host cell of invention, the Corynebacterium glutamicum microbial host cell, preferably Corynebacterium glutamicum ATCC 13032, can further overexpress one or more of the genes selected from the group consisting of galP (SEQ ID NO: 30), iolT2 (SEQ ID NO: 31), ppgk (SEQ ID NO: 32), pps (SEQ ID NO: 33-35), ppk (SEQ ID NO: 36), zwfl (SEQ ID NO: 37), opcA (SEQ ID NO: 38-39), tktCg (SEQ ID NO: 40), tktEc (SEQ ID NO: 41), talCg (SEQ ID NO: 42), tame (SEQ ID NO: 43), a gene encoding TrpEGS38F (trpEG^S38F, SEQ ID NO: 50), a gene encoding TrpEGS38R (trpEG^S38R, SEQ ID NO: 51), a gene encoding TrpEGS40R (trpEG^S40R, SEQ ID NO: 52), a gene encoding TrpEGS40F (trpEG^S40F, SEQ ID NO: 53), the gene encoding AroGD146N (aroG^D146N, SEQ ID NO: 55), aroL of Escherichia coli LJ110 (SEQ ID NO: 93), aroK (SEQ ID NO: 94), glnA (SEQ ID NO: 95), and qsuA (SEQ ID NO: 96). […]

[3] = substrate: C=C(O[C@@H]1C=C(C(=O)O)C=C[C@H]1O)C(=O)O; experiment: Anthranilate synthase activity in cell lysate of C. glutamicum ΔtrpD/pEKEx2-trpEG^S38F (KM and vmax); assay type: biochemical, Corynebacterium glutamicum ATCC 13032
From the text: as §1

[4] = substrate: C=C(O[C@@H]1C=C(C(=O)O)C=C[C@H]1O)C(=O)O; experiment: Anthranilate synthase activity in cell lysate of C. glutamicum ΔtrpD/pEKEx2-trpEG^S40F (KM and vmax); assay type: biochemical, E. coli
From the text: as §1

B1: Corynebacterium glutamicum ATCC 13032 TrpEG (anthranilate synthase), natural (wild type, Cgl3029/31) (Corynebacterium glutamicum ATCC 13032) (protein)
chain: MSTNPHVFSLDVRYHEDASALFAHLGGTTADDAALLESADITTKNGISSLAVLKSSVRITCTGNTVVTQPLTDSGRAVVARLTQQLGQYNTAENTFSFPASDAVDERERLTAPSTIEVLRKLQFESGYSDASLPLLMGGFAFDFLETFETLPAVEESVNTYPDYQFVLAEIVLDINHQDQTAKLAGVSNAPGELEAELNKLSLLIDAALPATEHAYQTTPHDGDTLRVVADIPDAQFRTQINELKENIYNGDIYQVVPARTFTAPCPDAFAAYLQLRATNPSPYMFYIRGLNEGRSYELFGASPESNLKFTAANRELQLYPIAGTRPRGLNPDGSINDELDIRNELDMRTDAKEIAEHTMLVDLARNDLARVSVPASRRVADLLQVDRYSRVMHLVSRVTATLDPELDALDAYRACMNMGTLTGAPKLRAMELLRGVEKRRRGSYGGAVGYLRGNGDMDNCIVIRSAFVQDGVAAVQAGAGVVRDSNPQSEADETLHKAYAVLNAIALAAGSTLEVIR
B1 gave a Km [1] of 11.4 µmol and a Vmax [1] of 0.0127 µmol/min/mg.

B2: Corynebacterium glutamicum TrpEG (anthranilate synthase) variant TrpEGS38R, mutation S38R (SEQ ID NO: 51 in b85; SEQ ID No. 52-53 in b196) (Corynebacterium … (protein)
chain: MSTNPHVFSLDVRYHEDASALFAHLGGTTADDAALLERADITTKNGISSLAVLKSSVRITCTGNTVVTQPLTDSGRAVVARLTQQLGQYNTAENTFSFPASDAVDERERLTAPSTIEVLRKLQFESGYSDASLPLLMGGFAFDFLETFETLPAVEESVNTYPDYQFVLAEIVLDINHQDQTAKLAGVSNAPGELEAELNKLSLLIDAALPATEHAYQTTPHDGDTLRVVADIPDAQFRTQINELKENIYNGDIYQVVPARTFTAPCPDAFAAYLQLRATNPSPYMFYIRGLNEGRSYELFGASPESNLKFTAANRELQLYPIAGTRPRGLNPDGSINDELDIRNELDMRTDAKEIAEHTMLVDLARNDLARVSVPASRRVADLLQVDRYSRVMHLVSRVTATLDPELDALDAYRACMNMGTLTGAPKLRAMELLRGVEKRRRGSYGGAVGYLRGNGDMDNCIVIRSAFVQDGVAAVQAGAGVVRDSNPQSEADETLHKAYAVLNAIALAAGSTLEVIR
B2 showed a Km [2] of 21.6 µmol and a Vmax [2] of 0.231 µmol/min/mg.

B3: Corynebacterium glutamicum TrpEG (anthranilate synthase) variant TrpEGS38F, mutation S38F (SEQ ID NO: 50 in b85; SEQ ID No. 52-53 in b196) (Corynebacterium … (protein)
chain: MSTNPHVFSLDVRYHEDASALFAHLGGTTADDAALLEFADITTKNGISSLAVLKSSVRITCTGNTVVTQPLTDSGRAVVARLTQQLGQYNTAENTFSFPASDAVDERERLTAPSTIEVLRKLQFESGYSDASLPLLMGGFAFDFLETFETLPAVEESVNTYPDYQFVLAEIVLDINHQDQTAKLAGVSNAPGELEAELNKLSLLIDAALPATEHAYQTTPHDGDTLRVVADIPDAQFRTQINELKENIYNGDIYQVVPARTFTAPCPDAFAAYLQLRATNPSPYMFYIRGLNEGRSYELFGASPESNLKFTAANRELQLYPIAGTRPRGLNPDGSINDELDIRNELDMRTDAKEIAEHTMLVDLARNDLARVSVPASRRVADLLQVDRYSRVMHLVSRVTATLDPELDALDAYRACMNMGTLTGAPKLRAMELLRGVEKRRRGSYGGAVGYLRGNGDMDNCIVIRSAFVQDGVAAVQAGAGVVRDSNPQSEADETLHKAYAVLNAIALAAGSTLEVIR
Work on B3 yielded a Km [3] of 16.2 µmol and a Vmax [3] of 0.0688 µmol/min/mg.

B4: E. coli TrpEG (anthranilate synthase) variant TrpEGS40F, mutation S40F (SEQ ID NO: 53 in b85; SEQ ID No. 50-51 in b196) (Escherichia coli K-12; S40F) (protein)
chain: MQTQKPTLELLTCEGAYRDNPTALFHQLCGDRPATLLLEFADIDSKDDLKSLLLVDSALRITALGDTVTIQALSGNGEALLALLDNALPAGVESEQSPNCRVLRFPPVSPLLDEDARLCSLSVFDAFRLLQNLLNVPKEEREAMFFGGLFSYDLVAGFEDLPQLSAENNCPDFCFYLAETLMVIDHQKKSTRIQASLFAPNEEEKQRLTARLNELRQQLTEAAPPLPVVSVPHMRCECNQSDEEFGGVVRLLQKAIRAGEIFQVVPSRRFSLPCPSPLAAYYVLKKSNPSPYMFFMQDNDFTLFGASPESSLKYDATSRQIEIYPIAGTRPRGRRADGSLDRDLDSRIELEMRTDHKELSEHLMLVDLARNDLARICTPGSRYVADLTKVDRYSYVMHLVSRVVGELRHDLDALHAYRACMNMGTLSGAPKVRAMQLIAEAEGRRRGSYGGAVGYFTAHGDLDTCIVIRSALVENGIATVQAGAGVVLDSVPQSEADETRNKARAVLRAIATAHHAQETF
Work on B4 yielded a Vmax [4] of 0.427 µmol/min/mg.
